T1: SPCH-ACTL (285-364) (Arabidopsis thaliana, UniProt Q700C7 285-364)
T1 construct: also called SPCH ACTL domain; source: E. coli BL21, purified (glutathione resin, thrombin, Superdex-200); not shown: GST, N-terminal, cleaved
T1 sequence (looked up): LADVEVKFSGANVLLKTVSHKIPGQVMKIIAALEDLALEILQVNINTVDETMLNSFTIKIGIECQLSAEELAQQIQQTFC

T2: MUTE-ACTL (114-202) (Arabidopsis thaliana, UniProt Q9M8K6 114-202)
T2 construct: MUTE, Arabidopsis thaliana, C-terminal ACT-like domain, residues 114-202; also called MUTE ACTL domain; source: E. coli BL21, purified (glutathione resin, thrombin, Superdex-200); not shown: GST, N-terminal, cleaved
T2 sequence (looked up): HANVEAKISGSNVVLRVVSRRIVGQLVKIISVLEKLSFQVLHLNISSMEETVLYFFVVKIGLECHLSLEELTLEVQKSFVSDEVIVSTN

T3: FAMA (ΔNFAMA) (Arabidopsis thaliana, Limits not printed. Start set by analogy with the printed ΔNSPCH 98-364 (one residue before the annotated bHLH). Runs to the native C-terminus. Tag or fusion carrier omitted.)
T3 chain: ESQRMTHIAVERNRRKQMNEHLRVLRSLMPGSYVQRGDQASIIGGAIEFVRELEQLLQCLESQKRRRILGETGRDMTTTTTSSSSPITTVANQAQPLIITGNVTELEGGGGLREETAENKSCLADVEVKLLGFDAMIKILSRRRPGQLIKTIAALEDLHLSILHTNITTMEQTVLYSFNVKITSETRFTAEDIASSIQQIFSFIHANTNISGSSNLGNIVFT

T4: SPCH (ΔNSPCH, 98-364) (Arabidopsis thaliana, UniProt Q700C7 98-364)
T4 construct: the only recombinant SPCH with bHLH domain that the methods list is ΔNSPCH (98-364); source: E. coli BL21, purified (glutathione resin, thrombin, Superdex-200); not shown: GST, N-terminal, cleaved
T4 sequence (looked up): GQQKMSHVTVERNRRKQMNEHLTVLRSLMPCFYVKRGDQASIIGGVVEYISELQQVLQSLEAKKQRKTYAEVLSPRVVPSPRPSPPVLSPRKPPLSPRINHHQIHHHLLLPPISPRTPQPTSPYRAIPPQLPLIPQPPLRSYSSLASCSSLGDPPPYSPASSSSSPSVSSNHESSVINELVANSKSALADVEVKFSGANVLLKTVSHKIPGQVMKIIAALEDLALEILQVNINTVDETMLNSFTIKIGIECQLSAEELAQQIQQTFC

T5: MUTE (1-202) (Arabidopsis thaliana, UniProt Q9M8K6 1-202)
T5 construct: MUTE, Arabidopsis thaliana, residues 1-202; MUTE (1-202) was made both as a GST fusion (pGEX-4T-1, thrombin-cleavable) and with an N-terminal His tag (pET28a); also called MUTE-HIS; MUTE-histag; source: E. coli BL21, purified (Ni-NTA or glutathione resin, Superdex-200)
T5 sequence (looked up): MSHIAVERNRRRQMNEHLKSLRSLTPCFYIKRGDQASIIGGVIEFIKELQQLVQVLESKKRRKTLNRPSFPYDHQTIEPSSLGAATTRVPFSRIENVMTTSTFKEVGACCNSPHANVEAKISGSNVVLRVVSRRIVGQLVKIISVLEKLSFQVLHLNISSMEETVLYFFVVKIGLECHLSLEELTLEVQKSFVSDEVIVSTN

T6: ΔNSPCH (98-364), recombinant (Arabidopsis thaliana, UniProt Q700C7 98-364)
T6 construct: BLI and ITC name it only SPCH; ΔNSPCH (98-364) is the only long recombinant SPCH construct that the methods list; also called purified SPCH; source: E. coli BL21, purified (glutathione resin, thrombin, Superdex-200); not shown: GST, N-terminal, cleaved
T6 sequence (looked up): T4 sequence (looked up)

T7: ΔNFAMA, recombinant (Arabidopsis thaliana, Limits not printed. Start set by analogy with the printed ΔNSPCH 98-364, which starts one residue before its annotated bHLH (99); FAMA bHLH is 194-245. Runs to the native C-terminus, including the ACT)
T7 chain: T3 chain

T8: GST-fused SCRM (1-494) (Arabidopsis thaliana, UniProt Q9LSE2 1-494)
T8 construct: SCREAM (SCRM, ICE1), Arabidopsis thaliana, At3G26744, residues 1-494; GST kept for loading on anti-GST probes; also called GST SCRM; GST-tagged SCRM; source: E. coli BL21, purified (glutathione agarose resin); not shown: GST, N-terminal, kept
T8 sequence (looked up): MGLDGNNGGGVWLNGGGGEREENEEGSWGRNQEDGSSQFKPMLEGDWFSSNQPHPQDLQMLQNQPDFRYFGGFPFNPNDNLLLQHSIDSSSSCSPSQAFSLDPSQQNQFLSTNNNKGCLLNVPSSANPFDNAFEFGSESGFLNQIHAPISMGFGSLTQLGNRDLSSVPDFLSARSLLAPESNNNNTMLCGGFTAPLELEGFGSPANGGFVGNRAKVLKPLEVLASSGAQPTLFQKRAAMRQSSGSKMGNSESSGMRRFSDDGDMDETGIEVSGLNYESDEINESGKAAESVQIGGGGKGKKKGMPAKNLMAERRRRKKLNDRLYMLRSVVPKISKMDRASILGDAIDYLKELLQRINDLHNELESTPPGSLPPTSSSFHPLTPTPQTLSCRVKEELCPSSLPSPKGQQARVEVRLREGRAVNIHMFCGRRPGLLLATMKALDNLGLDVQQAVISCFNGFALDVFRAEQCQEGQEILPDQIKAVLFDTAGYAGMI

B1: SCRM ACTL (405-494) (domain or fragment, Arabidopsis thaliana, UniProt Q9LSE2 405-494, looked up)
chain: KGQQARVEVRLREGRAVNIHMFCGRRPGLLLATMKALDNLGLDVQQAVISCFNGFALDVFRAEQCQEGQEILPDQIKAVLFDTAGYAGMI
notes: SCREAM (SCRM, ICE1), Arabidopsis thaliana, At3G26744, C-terminal ACT-like domain, residues 405-494; also called SCRM ACTL domain; source: E. coli BL21, purified (glutathione resin, Superdex-200)
B2: SCRM (1-494), GST removed (natural protein, Arabidopsis thaliana, UniProt Q9LSE2 1-494, looked up)
chain: T8 sequence (looked up)
notes: SCREAM (SCRM, ICE1), Arabidopsis thaliana, At3G26744, residues 1-494; Used for ITC; the methods tell thrombin cleavage of the GST-fused proteins in general, not for ITC by name; also called SCREAM; ICE1; source: E. coli BL21, purified (glutathione resin, thrombin, Superdex-200); not shown: GST, N-terminal, cleaved
B3: SCRM (1-494), recombinant (natural protein, Arabidopsis thaliana, UniProt Q9LSE2 1-494, looked up)
chain: T8 sequence (looked up)
notes: SCREAM (SCRM, ICE1), Arabidopsis thaliana, At3G26744, residues 1-494; the purification methods tell thrombin cleavage; source: E. coli BL21, purified (glutathione resin, thrombin, Superdex-200); not shown: GST, N-terminal, cleaved
B4: MUTE (1-202), recombinant (natural protein, Arabidopsis thaliana, UniProt Q9M8K6 1-202, looked up)
chain: T5 sequence (looked up)
notes: MUTE, Arabidopsis thaliana, residues 1-202; MUTE (1-202) was cloned both in pGEX-4T-1 (N-terminal GST, thrombin cleaved) and in pET28a (N-terminal His tag); also called purified MUTE; MUTE-HIS; source: E. coli BL21, purified (Ni-NTA, Superdex-200)

Key:
[1] = target: T1, SPCH-ACTL (285-364); assay: ITC; Malvern PEAQ-ITC; 150 µM SCRM ACTL/SCRM L484F ACTL injected into 15 µM SPCH ACTL/MUTE ACTL; PBS, pH 7.2 (Table S3; methods: pH 7.4); 25 °C; means of two experiments; details: both partners purified
[2] = target: T2, MUTE-ACTL (114-202); assay: as above; details: both partners purified
[3] = target: T3, FAMA (ΔNFAMA); assay: ITC; Malvern PEAQ-ITC; 40 µM SCRM/SCRMΔC injected into 4 µM SPCH/MUTE/FAMA; PBS, pH 7.2 (Table S1; methods: pH 7.4); 25 °C; single binding site model; means of two experiments; details: both partners purified
[4] = target: T4, SPCH (ΔNSPCH, 98-364); assay: as above; details: both partners purified
[5] = target: T5, MUTE (1-202); assay: as above; details: both partners purified
[6] = target: T6, ΔNSPCH (98-364), recombinant; assay: ITC; Malvern PEAQ-ITC, 25 °C, PBS pH 7.4; 40 μM SCRM/SCRMΔC injected into 4 μM SPCH/MUTE/FAMA; single binding site model; details: both partners purified
[7] = target: T7, ΔNFAMA, recombinant; assay: as above; details: both partners purified
[8] = target: B4; assay: as above; details: both partners purified
[9] = target: T8, GST-fused SCRM (1-494); assay: BLI; Octet Red96; anti-GST probes loaded with 500 nM GST-SCRM or GST-SCRMΔC; SPCH/MUTE/FAMA as analyte at 3.12-200 nM; 30 °C; 1x PBS with 0.02% Tween 20; no DNA; 1:1 model; details: both partners purified
[10] = target: GST-fused SCRMΔC (1-404) (Arabidopsis thaliana) (UniProt Q9LSE2); assay: BLI; as a3, samples incubated for 30 min with a 1:4 molar ratio of the synthetic E-box DNA fragment
[11] = target: B3; assay: ITC; Malvern PEAQ-ITC, 25 °C, PBS pH 7.4; 40 μM SCRM/SCRMΔC injected into 4 μM SPCH/MUTE/FAMA; single binding site model; details: both partners purified
[12] = target: GST-fused SCRMΔC (1-404) (Arabidopsis thaliana) (UniProt Q9LSE2); assay: BLI; as a3, samples incubated for 30 min with a 1:4 molar ratio of the TMM promoter DNA fragment

Binder: B1
- stoichiometry N [1]: 0.95
- stoichiometry N [2]: 0.95

Binder: B2
- stoichiometry N [3]: 0.91
- stoichiometry N [4]: 1.02
- stoichiometry N [5]: 1.03

Binder: B3
- stoichiometry N [6]: 1
- stoichiometry N [7]: 1
- stoichiometry N [8]: 1

Binder: B4
- Kd [9]: 7.3 ± 1.5 nM
- Kd [10]: 545 nM
- Kd [11]: 10.5 ± 2.1 nM
- Kd [12]: 565 nM
